Here are results for 1 substance from patent US20230242658A1.

One may read the pIC50 as the IC50 on a negative log10 scale, so that one unit is a factor of ten. A lower pIC50 goes with a large IC50. In general, pEC50 refers to the EC50 on a negative log10 scale, so that one unit is a factor of ten.

Test [1] concerns the target human 4-1BB on CHO-K1 cells (human) (UniProt Q07011). Put plainly: FACS blocking of 4-1BBL; FIG. 14G.
Test [2] has the same target. Put plainly: FACS; FIG. 25E.
Test [3] shares this target. As to the kind of experiment: FACS; FIG. 25C. Background: A flow cytometer gives signals particle by particle.
The target is the same in test [4]. As to the kind of experiment: FACS blocking of 4-1BBL; FIG. 14H.
Test [5] shares this target. As to the kind of experiment: FACS; FIG. 11I.
Test [6] has the same target. As to the kind of experiment: FACS; FIG. 11J.
Test [7] shares this target. As to the kind of experiment: FACS blocking of 4-1BBL; FIG. 14F.
The target is the same in test [8]. Put plainly: FACS; FIG. 25B.
The target is the same in test [9]. As to the kind of experiment: FACS; FIG. 11H.
Test [10] has the same target. Put plainly: FACS; FIG. 25D.
Test [11] shares this target. As to the kind of experiment: FACS; FIG. 25A.

pEC50, pIC50: −log10 of the molar value.

Chain of human 4-1BB on CHO-K1 cells (human) (Q07011 24-255): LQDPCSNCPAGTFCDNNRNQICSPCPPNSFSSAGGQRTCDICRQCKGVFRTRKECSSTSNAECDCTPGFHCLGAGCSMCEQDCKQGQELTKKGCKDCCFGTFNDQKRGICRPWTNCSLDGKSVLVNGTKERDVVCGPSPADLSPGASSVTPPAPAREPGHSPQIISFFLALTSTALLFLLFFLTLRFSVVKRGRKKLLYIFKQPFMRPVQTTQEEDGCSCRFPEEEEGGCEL

As for Urelumab, the pIC50 is 9.35 in [1], 9.63 in test [4] and 8.89 in test [7]. Further, the negative logarithm of the EC50 (pEC50) in test [2] was 9.63; in [3] it was 9.28; in test [5] it was 9.15; in test [6], 9.31; in [8], 9.46; in test [9], 9.17. The negative-log EC50 (pEC50) is 9.18 in test [10] and 8.99 in [11].
